Assay results: PMC5645763

How the values were obtained:
[1] = target: SdKefQCTD (KTN-containing carboxy-terminal domain construct of the Shewanella denitrificans Kef potassium efflux system) (Shewanella denitrificans); test: SEC; gel filtration (Figure S1); in solution, at the concentrations used (not given)
[2] = target: SdKefQCTD (KTN-containing carboxy-terminal domain construct of the Shewanella denitrificans Kef potassium efflux system) (Shewanella denitrificans); test: AUC; analytical ultracentrifugation (Figure S3); in solution, at the concentrations used (not given)
[3] = target: SdKefQCTD (KTN-containing carboxy-terminal domain construct of the Shewanella denitrificans Kef potassium efflux system) (Shewanella denitrificans); test: SEC-MALS; size-exclusion chromatography-multiangle laser scattering (Figure S2); in solution, at the concentrations used (not given)
[4] = target: SdKefQCTD (KTN-containing carboxy-terminal domain construct of the Shewanella denitrificans Kef potassium efflux system) (Shewanella denitrificans); test: native MS; nanoelectrospray on a QToF-2, 200 mM ammonium acetate, 7.5 uM with respect to the dimer, positive polarity; collisional activation to remove AMP

Measured: stoichiometry N

SdKefQCTD (KTN-containing carboxy-terminal domain construct of the Shewanella denitrificans Kef potassium efflux system) (domain or fragment)
2: all assays above
